assay: soluble on expression in E. coli; label from the status in PepcDB or PDB records

Sequence | soluble on expression in E. coli
MSIVNILSVNVLNNPAKFSDPYKFEITFECLEPLKSDLEWKLTYVGSATSQSYDQILDTLLVGPIPIGINKFVFEADPPNIDLLPQLSDVLGVTVILLSCAYEDNEFVRVGYYVNNEMEGLNLQEMDDAEIKKVKVDISKVWRSILAEKPRVTRFNIQWDN | soluble
MSIYYDLYENPKQEDAEEQKLLHARVVPSGTYTTKEFVERVSMMHHIPHAQLVGAVEAITDELQTLLSRGYIVEFGDLGHFSLTLSLEKEIIDRKEVRSPSIRLKNIKLKVKQTYKRELNSKMDLERISSPTRSNAKISEDECLKKLQDFLEKHPCINRADYCAITGMSRLQALHQLNLFIEKGIIQKYGNGKTVVYIRVV | not soluble
MSKAKIGIVTVSDRASAGIYEDISGKAIIDTLNDYLTSEWEPIYQVIPDEQDVIETTLIKMADEQDCCLIVTTGGTGPAKRDVTPEATEAVCDRMMPGFGELMRAESLKFVPTAILSRQTAGLRGDSLIVNLPGKPKSIRECLDAVFPAIPYCIDLMEGPYLECNEAVIKPFRPKAK | soluble
MSKATFDPTRYNKSNNEPFNQVLDKHLSRRNFVKSGLGLGAMTAFAGMGLTGCGSDSSSSPIPVDPVPPLPPTKSSAKLNFTSVKGARLNAVVVPEGYSAQVLAPWGTPLNAKAAPWKADGSNTADDQANSVGMHHDGMHFFPLNQAGDDGLLCINHEYIDEIALHPNGPTVDATTGLRTIVDEVRKEINAHGVSVVRIKLTNNQWEVVYNDKHNRRFTGATVMDIAGPLAYSPLLETRYSPDGSQARGTLNNCGNGYTPWGTYLTCEENWPEYFVNRSTLTRDQIRIGISKTSSRYGWDDLAGQDEERLDEFSRFDVTPKGVSARDDYRNEANGHGYIVEIDPYNPTSRAIKRTALGRFRHEGCTFGKLSEGQPVVFYSGHDARFEYLYKFVSAAPWNPQDANSSNRLEIGDKYMNEGTLYAAKFNENGVGAWLPLTLDSQTTDGKTLGNSFASLADIILNTAGAADLLGATPMDRPEWCAVDPFTGSVYLTLTNNSKRTEANPANPRLKNNFGHIIRWDEADKETEFTWDIFVFGSPSDGNAETNLSGLTDLNQFASPDGLAFDKRGILWVQTDNGAEEVAEETNDQMLAIVPSTLLDSANKQTSVTAKNQMELKRFFVGPNDCEVTGFAISPDYKTVFANIQHPGNWPYSNNAAEVTPTGVVLRPRAATVVIRKLDGKEVAVLEHHHHHH | not soluble
MSKEQAHAELKKDYLIHDEKIMLMQEIVDRQLAAVPDLYRVKDEVSIYIGIPFCPTKCAYCTFPAYAIQGQAGRVGSFLWGLHYEMQKIGEWLKEHDVKVTTIYFGGGTPTSITAEEMDLLYEEMVRSFPDVKNIREITVEAGRPDTITEEKLAVLNKYDIDRISINPQSYENETLKAIGRHHTVEETIEKYHLSRQHGMNNINMDLIIGLPGEGVKEFRHSLSETEKLMPESLTVHTLSFKR | not soluble
MSKFYSEQFKRDAVALYENNENLSLAAAAAELRVNRASLHQWKKELGTGKRTRMIEAKAQAEAASDAERIRALEKENAKLREERDILRKAAKYFAEETSWLEHHHHHH | not soluble
MSKKDVTKVVLDESDIPKQWYNILADMPNKPAPYFSSKTGKPVTLDELQAIFPMELIQQENSQERWIDIPEEVREMYRQWRPSPLYRARALEKHLGTPARIYYKYEGTNATGSHKLNTSLPQAYYNKIAGIKRLSTETGAGQWGSALSLACNHFGLECTVYMVKVSYEQKPYRRSFMKTFGAQVYASPTNLTSSGRAILEKDPDCTGSLGIAISEAVEDAATHDDTNYALGSVLNHVCLHQTIIGLEAKKQLEYLDEYPDVVFACCGGGSNFAGIAFPFLMDKFKGTKVRAVAVEPTACPTLTKGVYAYDYSDTGKIGPLAKMYTVGHDFVPAGIHAGGLRYHGVSPIVSQLYEDKLIEAKAYGQSSVFEAAVIFARTEGIVPAPESSHAIRAAIDEALLCKESGEAKVILFNLSGHGYFDMAAYDNYFSGKLSDVDYSEEEIARSMKNLPKVD | soluble
MSKKKGLSAEEKRTRMMEIFSETKDVFQLKDLEKIAPKEKGITAMSVKEVLQSLVDDGMVDCERIGTSNYYWAFPSKALHARKHKLEVLESQLSEGSQKHASLQKSIEKAKIGRCETEERTRLAKELSSLRDQREQLKAEVEKYKDCDPQVVEEIRQANKVAKEAANRWTDNIFAIKSWAKRKFGFEENKIDRTFGIPEDFDYID | soluble
MSKKKVQNTNKKMKECWLTPIPQNVETVNMTVSFKIDEKDVGKPANEVIRINENSMVSFLSTNSFYNGLILSDKIVKVNGASGNISKYQTELMKGETCSVEVTRRKNIIPATRERLKKSGCVLRRDNTCFVIEVEKTSAMKSATVGVTVTYIQKRGIVTRIEPSSLASIFFGRGDLIMDINEESILNAEKNDDFIREKLSGILKGEKVTFLVERPVSVESANTLRHLIESVAPDPDVKMANDAICIGRNASNMHYNVLKKLQPKSILSRDVFKGKNPREKKPGKKLSKEKDNTIKISTATSTANISTDVAEDEIDNLKNVVTKSHAVRSGDEEEERGAFDDE | not soluble
MSKMKRRTNKPRATESANSSTKSSVLDEPTLVERKQQKKQILKFVQRTLEKMPQGLRAEFVGMRRFNDFEKMKAFKEAQEAGKNRYKDVGCLDNNRVKLEGPWPHEYIHANYVATPTNPKRFICTQAPLEKTCADFWYMCYQDKVEYIFMLCNLLEKGARKCFEYFPSKKGDVMDFEEGGQKISVKCESSVTYSFRSDAKANVTATEIVIEGPGEKTRKTTHYHWNDWPDRGVPAADMAVLELLENARPSKGPIVVHCSAGIGRTGSVVMLEYIMDQLLAGQIIDDGEKILVKIREQRNNSIQTDAQYLFVHQVILNYFRKKKLMEETGVQEAYDAFLEQYKKVVV | soluble
MSKNTGSVAPKERVNIKYVPATSDEQAEVELPHKMLVLGDFGLDDSRALEDRQVMRIDKHTFNSVLNDANVSLDVTVPSRLGTAPDTELAVHLQFRSINDFGPDRIARQVPELNKLLALREALVALKGPLGNVPAFRKQLQHLLNNEQARKQLAQELDLVLEAPEKD | not soluble
MSKPEFIARQGRKPTGWLGHIVARVMARETRPENDRALSFLDLADGDSLIDIGCGHGETLFQADRIVRLSGSVGVDFSEVMLKRARARNRDAVWDTRMAFHCADTAALPFPDKRFGKALSVHTIYFWPNPAAHLAEAFRVLRRGGRFLFCYRSTADRRAVEEFPDTVYRFPSVQEVEEKLKLVGFLGPETTTEDIKGLEHHHHHH | not soluble
MSKSEETLSSIMEASYRLFARHGITKTTYSMIAEEVGIAKPSIYYYFKSKDALIECIFTELCAAMQFSSFFHTEEFTKENFIEKCIEIGFKIIDEQQNDPYFNRVLQEYLLLSSRNDMYKDRLLTVQTEYLQGFESLLTKANELQLIENKNLVSKAHMLALVLDNVGNFMMLHVDIDYRQIWMEAVNIIFERRD | not soluble
MSLAAPLTVGFSQVGSESGWRAAETNVAKSEAEKRGITLKIADGQQKQENQIKAVRSFVAQGVDAIFIAPVVATGWEPVLKEAKDAEIPVFLLDRSIDVKDKSLYMTTVTADNILEGKLIGDWLVKEVNGKPCNVVELQGTVGASVAIDRKKGFAEAIRNAPNIKIIRSQSGDFTRSKGKEVMESFIKAENNGKNICMVYAHNDDMVIGAIQAIKEAGLKPGKDILTGSIDGVPDIYKAMIDGEANASVELTPNMAGPAFDALEKYKKDGTMPEKLTLTKSTLYLPDTAKEELEKKKNMGYEGHHHHHH | soluble
MSLAARLIRSSRSNTFGIITDYVSTTPYSVDIVRGIQDWANANGKTILIANTGGSSEREVEIWKMFQSHRIDGVLYVTMYRRIVDPESGDVSIPTVMINCRPQTRELLPSIEPDDYQGARDLTRYLLERGHRRIGYIRLNPILLGAELRLDAFRRTTSEFGLTENDLSISLGMDGPVGAENNYVFAAATEMLKQDDRPTAIMSGNDEMAIQIYIAAMALGLRIPQDVSIVGFDDFRTVTMALKPELTTAALPYYDLGREGAKWLNDLIAGEKIYPGSRVVSCKLVERSSAAFGEGHHHHHH | soluble
MSLAATPRKLSSKEVAALVGNLMEASESTSLENGLEVRPYAFGENELNQLGDYHALRIINERFCRTARDVFLPMLRLQPRISSFPPEVRSFDDYRSSQDNFVSITASRIEELRGNQMIVIPPPFISLLTDSYYGGQIRHVPTTRTEFTATEERCIELVTDRLNVALQVAWRDLMALTFTVVSREESMQFASFVDGEDMVVNCSFMVQLPNTEPASFDILYPLQTLKPISSQLRSRMQSDFVDDDRSWREKLERAILSIPLTLSARLCEPEVPLRQLMQMQPGDVLPVHLTEALSLLVEGQPIFEAAPGERGGQAALNLTRRHVRGEGHHHHHH | soluble
MSLAAYSLPVDVEAEDCTLGNGAVVTTNVYGTQYPGYSGDGFVWVANSGTITLEVTIPENGMYELSTRCWMYLGKEDETRMQVISINGKSHSNYFIPNKGQWIDYSFGFFYLEAGKATIEIGSSGSWGFILYDKIYFDHADMPDHIIDPTPCDPNATPETRALMKYLTSVYGKYVISGQQEIYGNGNDGNYELEFDYIYEKTGKYPAIRGFDFMNYNPLYGWEDGTTARIIDWVKNRGGIATACWHINIPRDFASYKLGEPVDWTNCTYKPTSSFNTANCLDETTKEHAYLMMAIEDLAEQLLILQEQNIPILFRPFHEAEGYNNTDGSGAWFWWGSAGAEVYKELWKLLYKTLTEKYGIHNLIWEVNLYTYANSYEWYPGDEYVDIIGYDKYEGSPNTWGTSAASSLFLTLVNYTNDTKMVALTENDVIPDIQNIVNEEAWWLYFCPWYGDFLMSPRYNDPVLLNTIYNSEYVITLDELPENLYEYDGEIPDINYGDLNNDGNINSTDYMILKKYILKVLERMNVPEKAADLNGDGSINSTDLTILKRFIMKAITKFPVTQKEGHHHHHH | soluble
MSLADGKTYKIGAAVYGLKGQFMQNWVRELKEHPAVKDGTVKITVFDGNYDALTQNNQIETMITQHYDAIIFVPIDTKAGVGTVARAMENDIPVIASNTRVAGNKVPYVGNDDVEGGRLQAQAMVDKLKGKGNVVIIQGPIGQSAQIDREKGELEVLSKHPDIKIIEKKTANWSRAEAQTLTEDWLNAHQNGGISGIISQNDDMALGALQAVKSRNLKPADVPITSIDGMPDAIQAAKKNEITTFLQDAQAQSQGALDVALRALAGKDYKPQSVIWQRYAKDVKWGDGTDEGHHHHHH | soluble
MSLADIIIHNGSLITFDEARPQAQALAIQGGMIAAVGSDAEILALAGPETRLIDAGGGTVLPGFIDSHVHLFGGSVELDCLSLYGVKGLDAMRAAIQPYAQANPDDALVFCVMADYDILGTGHTLTRHDLDSILADRPLAMFAPDHHTVWANTAALEATGLLQGGEVDAGSLIVLGEDGLANGELLEPGAYGPILGLTRHGGREMLGLTTGKDPEPPATPDQRARDKDVIARGLAHCAAQGITGLHLMDGNRYQLELLTELEAEGRLLCRCEVPFHMKGTDPVERMTAEAPAMRAAYRGDKVRCNHLKMFIDGVIESGTALMLRPYPGELGANDNTGDEVFTQEHFTACCVEADRLGFQIAVHAIGDAGVRRTIDAFEAARRANGTRDSRHRIEHIEVIHPDDIPRLAELDIVASLQPGHAPRGHVFPPGAVGQYLHPDQIVGAYAWQTIRETGARVVFSTDWPVIPVDVMPSLRAAIAPLDLGPDWPDQSQSLMDTLASYTRDNAWVEFNEDSKGRLKVGMAADIAVLSHDLTALAPDDITQAAAMVTIMDGAVTYQREGHHHHHH | soluble
MSLADLTFPSLSYRTGPYAAGGIPFADGYADYFTLLNERDGGIGGVKANVLECETGYNTEKGVECYESTKGQGALVYQPLSTGITYQLIPKATADGIAIHSMGYGRTSAKNGNVFSHVFNYPANYWDGASGAVNYLLEINGGDIKGKKIALVYHNSAYGKEPIRTLEELSKKHGFDLSTLPVDHPGQEQKSQWLQIRRDKPDYVLMWGWGVMNQVAVQEAANIRFPMENFIGIWWSGSENDVLPAGDAANGYKALTFHNVGTAFPLFDDLQKYVIDAGKAAGAGDQVGTVLYNRGLYAAMLAAEAAKKAQEISGKADITAADMRDGMEALEMTEAKMAELGLPNFGPTFSVSCGNHGGDALVGVTQWDATSKTWSLISDFKPTDGDVIGALIEEDSSAYASENNISPRCNEGHHHHHH | soluble

Source: the DeepSol protein solubility set
